Experimental data: patent US20240002497A1 (Merck Sharp & Dohme, published 2024)

B1: F010301138 (VHH)
VHH: EVQLVESGGGLVQPGGSLRLSCAASGMLFYANTQGWYRQAPGKQRELVAFIFSGGYTNYNDSVKGRFTISRDNAKRTMYLQMNSLKPEDSAIYYCALSRYQGQGTLVTVSS
notes: vs F0103265A11: N30Y, V60N, S93A, L103Q
B2: F010301139 (VHH)
VHH: EVQLVESGGGLVQPGGSLRLSCAASGMLFNRNTQGWYRQAPGKQRELVAFWFSGGYVNYNDSVKGRFTISRDNAKRTMYLQMNSLKPEDSAIYYCSLSRYQGQGTLVTVSS
notes: vs F0103265A11: A31R, I51W, T57V, V60N, L103Q
B3: F010301175 (VHH)
VHH: EVQLVESGGGLVQPGGSLRLSCAASGMLFNRNTQGWYRQAPGKQRELVAFIFSGGYTTYVDSVKGRFTISRDNAKRTMYLQMNSLKPEDSAIYYCSLSRYLGQGTLVTVSS
notes: vs F0103265A11: A31R, N58T
B4: F010301188 (VHH)
VHH: EVQLVESGGGLVQPGGSLRLSCAASGMLFNRNTQGWYRQAPGKQRELVAFIFSGGYTNYNDSVKGRFTISRDNAKRTMYLQMNSLKPEDSAIYYCSLSRYQGQGTLVTVSS
notes: vs F0103265A11: A31R, V60N, L103Q
B5: F010301232 (VHH)
VHH: EVQLVESGGGLVQPGGSLRLSCAASGMLFNRNTQGWYRQAPGKQRELVAFIFSGGYTTYVDSVKGRFTISRDNAKRTMYLQMNSLKPEDSAIYYCALSRYQGQGTLVTVSS
notes: vs F0103265A11: A31R, N58T, S93A, L103Q
B6: F010301567 (VHH)
VHH: EVQLVESGGGLVQAGGSLRLSCAASVRPYSTSAMGWFRQAPEKEREAVAGILWNGIVTYYADSVKGRFTISRDNAKNEVYLQMNKLKPEDTAVYYCALDRDYGGRSFSAYEYEYWGQGTLVTVSS
notes: F29Y vs F0103362B08 (Kabat)
B7: F010301568 (VHH)
VHH: EVQLVESGGGLVQAGGSLRLSCAASVRPFSTSAMTWFRQAPEKEREAVAGILWNGIVTYYADSVKGRFTISRDNAKNEVYLQMNKLKPEDTAVYYCALDRDYGGRSFSAYEYEYWGQGTLVTVSS
notes: G35T vs F0103362B08 (Kabat)
B8: F010301574 (VHH)
VHH: EVQLVESGGGLVQAGGSLRLSCAASVRPFSTSAMAWFRQAPEKEREAVAGILWNGIVTYYADSVKGRFTISRDNAKNEVYLQMNKLKPEDTAVYYCALDRDYGGRSFSAYEYEYWGQGTLVTVSS
notes: G35A vs F0103362B08 (Kabat)
B9: F010301578 (VHH)
VHH: EVQLVESGGGLVQAGGSLRLSCAASVRPFGTSAMGWFRQAPEKEREAVAGILWNGIVTYYADSVKGRFTISRDNAKNEVYLQMNKLKPEDTAVYYCALDRDYGGRSFSAYEYEYWGQGTLVTVSS
notes: S30G vs F0103362B08 (Kabat)
B10: F010301579 (VHH)
VHH: EVQLVESGGGLVQAGGSLRLSCAASVKPFSTSAMGWFRQAPEKEREAVAGILWNGIVTYYADSVKGRFTISRDNAKNEVYLQMNKLKPEDTAVYYCALDRDYGGRSFSAYEYEYWGQGTLVTVSS
notes: R27K vs F0103362B08 (Kabat)
B11: F010301580 (VHH)
VHH: EVQLVESGGGLVQAGGSLRLSCAASVTPFSTSAMGWFRQAPEKEREAVAGILWNGIVTYYADSVKGRFTISRDNAKNEVYLQMNKLKPEDTAVYYCALDRDYGGRSFSAYEYEYWGQGTLVTVSS
notes: R27T vs F0103362B08 (Kabat)
B12: F010301584 (VHH)
VHH: EVQLVESGGGLVQAGGSLRLSCAASVRPFSTSAMGWFRQAPEKEREAVAGILTNGIVTYYADSVKGRFTISRDNAKNEVYLQMNKLKPEDTAVYYCALDRDYGGRSFSAYEYEYWGQGTLVTVSS
notes: W52aT vs F0103362B08 (Kabat)
B13: F010301585 (VHH)
VHH: EVQLVESGGGLVQAGGSLRLSCAASVRPFSTSAMGWFRQAPEKEREAVAGILWNGIPTYYADSVKGRFTISRDNAKNEVYLQMNKLKPEDTAVYYCALDRDYGGRSFSAYEYEYWGQGTLVTVSS
notes: V56P vs F0103362B08 (Kabat)
B14: F010301586 (VHH)
VHH: EVQLVESGGGLVQAGGSLRLSCAASVRPFSTSAMGWFRQAPEKEREAVAGILANGIVTYYADSVKGRFTISRDNAKNEVYLQMNKLKPEDTAVYYCALDRDYGGRSFSAYEYEYWGQGTLVTVSS
notes: W52aA vs F0103362B08 (Kabat)
B15: F010301589 (VHH)
VHH: EVQLVESGGGLVQAGGSLRLSCAASVRPFSTSAMGWFRQAPEKEREAVAGILWNGPVTYYADSVKGRFTISRDNAKNEVYLQMNKLKPEDTAVYYCALDRDYGGRSFSAYEYEYWGQGTLVTVSS
notes: I55P vs F0103362B08 (Kabat)
B16: F010301591 (VHH)
VHH: EVQLVESGGGLVQAGGSLRLSCAASVRPFSTSAMGWFRQAPEKEREAVAGILWNGIVTYYADSVKGRFTISRDNAKNEVYLQMNKLKPEDTAVYYCALDRDYKGRSFSAYEYEYWGQGTLVTVSS
notes: G99K vs F0103362B08 (Kabat)
B17: F010301592 (VHH)
VHH: EVQLVESGGGLVQAGGSLRLSCAASVRPFSTSAMGWFRQAPEKEREAVAGILWNGIVTYYADSVKGRFTISRDNAKNEVYLQMNKLKPEDTAVYYCALDRDYGGSSFSAYEYEYWGQGTLVTVSS
notes: R100aS vs F0103362B08 (Kabat)
B18: F010301593 (VHH)
VHH: EVQLVESGGGLVQAGGSLRLSCAASVRPFSTSAMGWFRQAPEKEREAVAGILWNGIVTYYADSVKGRFTISRDNAKNEVYLQMNKLKPEDTAVYYCALDKDYGGRSFSAYEYEYWGQGTLVTVSS
notes: R96K vs F0103362B08 (Kabat)
B19: F010301594 (VHH)
VHH: EVQLVESGGGLVQAGGSLRLSCAASVRPFSTSAMGWFRQAPEKEREAVAGILWNGIVTYYADSVKGRFTISRDNAKNEVYLQMNKLKPEDTAVYYCALDRDYGGKSFSAYEYEYWGQGTLVTVSS
notes: R100aK vs F0103362B08 (Kabat)
B20: F010301595 (VHH)
VHH: EVQLVESGGGLVQAGGSLRLSCAASVRPFSTSAMGWFRQAPEKEREAVAGILWNGIVTYYADSVKGRFTISRDNAKNEVYLQMNKLKPEDTAVYYCALDRAYGGRSFSAYEYEYWGQGTLVTVSS
notes: D97A vs F0103362B08 (Kabat)
B21: F010301596 (VHH)
VHH: EVQLVESGGGLVQAGGSLRLSCAASVRPFSTSAMGWFRQAPEKEREAVAGILWNGIVTYYADSVKGRFTISRDNAKNEVYLQMNKLKPEDTAVYYCALDRDYAGRSFSAYEYEYWGQGTLVTVSS
notes: G99A vs F0103362B08 (Kabat)
B22: F010301598 (VHH)
VHH: EVQLVESGGGLVQAGGSLRLSCAASVRPFSTSAMGWFRQAPEKEREAVAGILWNGIVTYYADSVKGRFTISRDNAKNEVYLQMNKLKPEDTAVYYCALDRDYQGRSFSAYEYEYWGQGTLVTVSS
notes: G99Q vs F0103362B08 (Kabat)
B23: F010301604 (VHH)
VHH: EVQLVESGGGLVQAGGSLRLSCAASVRPFSTSAMGWFRQAPEKEREAVAGILWNGIVTYYADSVKGRFTISRDNAKNEVYLQMNKLKPEDTAVYYCALDRDYGGQSFSAYEYEYWGQGTLVTVSS
notes: R100aQ vs F0103362B08 (Kabat)
B24: F010301606 (VHH)
VHH: EVQLVESGGGLVQAGGSLRLSCAASVRPFSTSAMGWFRQAPEKEREAVAGILWNGIVTYYADSVKGRFTISRDNAKNEVYLQMNKLKPEDTAVYYCALDRDYGGRSFSAKEYEYWGQGTLVTVSS
notes: Y100fK vs F0103362B08 (Kabat)
B25: F010301607 (VHH)
VHH: EVQLVESGGGLVQAGGSLRLSCAASVRPFSTSAMGWFRQAPEKEREAVAGILWNGIVTYYADSVKGRFTISRDNAKNEVYLQMNKLKPEDTAVYYCALDRDYGGRSFSAAEYEYWGQGTLVTVSS
notes: Y100fA vs F0103362B08 (Kabat)
B26: F010301609 (VHH)
VHH: EVQLVESGGGLVQAGGSLRLSCAASVRPFSTSAMGWFRQAPEKEREAVAGILWNGIVTYYADSVKGRFTISRDNAKNEVYLQMNKLKPEDTAVYYCALDRDYGGRSFSAQEYEYWGQGTLVTVSS
notes: Y100fQ vs F0103362B08 (Kabat)
B27: F010301612 (VHH)
VHH: EVQLVESGGGLVQAGGSLRLSCAASVRPFSTSAMGWFRQAPEKEREAVAGILWNGIVTYYADSVKGRFTISRDNAKNEVYLQMNKLKPEDTAVYYCALDRDYGGRSFSATEYEYWGQGTLVTVSS
notes: Y100fT vs F0103362B08 (Kabat)
B28: F010301617 (VHH)
VHH: EVQLVESGGGLVQAGGSLRLSCAASVRPFSTSAMGWFRQAPEKEREAVAGILWNGIVTYYADSVKGRFTISRDNAKNEVYLQMNKLKPEDTAVYYCALDRDYGGRSQSAYEYEYWGQGTLVTVSS
notes: F100cQ vs F0103362B08 (Kabat)

Tests used:
[1] = molecular target: T1, huNav1.7α+β1 (human, UniProt Q15858 1-1988; Q07699 19-218); test: binding FACS, HEKa/β1 cells
T1 construct: also called huNav1.7-beta1; HEKa/β1
Method: (§1) Binding of the ISVDs to cell-expressed Nav1.7α was detected via murine anti-Flag (Sigma, catalog #F1804). Briefly, cells were resuspended in FACS buffer (PBS, 10% FBS, NaN₃) and transferred to a 96-well V-bottom plate at 1×10^5 cells/well. Purified FLAG3-tagged ISVD was diluted in FACS buffer and added to the cells for 30 minutes at 4° C. […] Prior to the read-out, the samples were resuspended in 1 μg/mL propidium iodide (Sigma, catalog #P4170) to exclude dead cells. Between each step, the cells were centrifuged for 5 minutes at 200 grams and washed with 100 μL/well FACS buffer.

[2] = molecular target: T2, huNav1.7α + β1 (HEKa/β1) (human, UniProt Q15858 1-1988; Q07699 19-218); test: binding FACS, HEKa/β1 cells
T2 construct: also called HEKa/β1 huNav1.7α
Method: as §1

[3] = molecular target: T3, huNav1.7α + β1-β2-β3 (human, UniProt Q15858 1-1988; A5A6L6 19-218; O60939 30-215; Q2KI11 23-215); test: binding FACS, CHO FlpIn cells
T3 construct: Cell line (CHO FlpIn, HEK FlpIn, transient HEK293T) is named under assay; also called huNav1.7-beta1-beta2-beta3; human Nav1.7α with Navβ1, Navβ2 and Navβ3
Procedure, shortened: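 Cells are first suspended in FACS buffer at 1×10^5 per well. Next, FLAG3-tagged ISVD is added for 30 minutes at 4° C, and binding is then detected with murine anti-Flag. Finally, samples go into 1 μg/mL propidium iodide before flow cytometry.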

Binder | Bmax relative to '535 [1] [%] | EC50 [1] [nM] | EC50 [2] [nM] | EC50 [3] [nM]
B1 | 107 | 9.7 |  | 
B2 | 117 | 4.7 |  | 
B3 | 111 | 5.4 |  | 
B4 | 104 | 5.1 |  | 
B5 | 112 | 9.3 |  | 
B6 |  |  | 24 | 110
B7 |  |  | 110 | 310
B8 |  |  | 29 | 100
B9 |  |  | 30 | 120
B10 |  |  | 36 | 130
B11 |  |  | 35 | 180
B12 |  |  | 42 | 110
B13 |  |  | 53 | 110
B14 |  |  | 51 | 170
B15 |  |  | 41 | 120
B16 |  |  | 43 | 93
B17 |  |  | 67 | 200
B18 |  |  | 40 | 110
B19 |  |  | 29 | 110
B20 |  |  | 17 | 62
B21 |  |  | 50 | 140
B22 |  |  | 29 | 89
B23 |  |  | 52 | 190
B24 |  |  | 24 | 65
B25 |  |  | 30 | 90
B26 |  |  | 37 | 190
B27 |  |  | 44 | 170
B28 |  |  | 44 | 170
